# Measured values taken from ChEMBL document CHEMBL1137666, “Biochemical Characterization of SFC-1, a class A carbapenem-hydrolyzing beta-lactamase” (Antimicrob Agents Chemother, 2007).
# B1: IMI-1 (Enterobacter cloacae), Q46991 (protein)
# chain: MSLNVKPSRIAILFSSCLVSISFFSQANTKGIDEIKDLETDFNGRIGVYALDTGSGKSFSYKANERFPLCSSFKGFLAAAVLKGSQDNQLNLNQIVNYNTRSLEFHSPITTKYKDNGMSLGDMAAAALQYSDNGATNIILERYIGGPEGMTKFMRSIGDKDFRLDRWELDLNTAIPGDERDTSTPAAVAKSLKTLALGNILNEREKETYQTWLKGNTTGAARIRASVPSDWVVGDKTGSCGAYGTANDYAVVWPKNRAPLIISVYTTKNEKEAKHEDKVIAEASRIAIDNLK
# What was measured:
# [1] = biological target: Carbapenem-hydrolyzing beta-lactamase KPC (Klebsiella pneumoniae, UniProt Q9F663); test: Inhibition of Klebsiella pneumoniae KPC-1 beta lactamase expressed in Escherichia coli DH5alpha by SDS-PAGE
# [2] = substrate: C[C@@H](O)[C@H]1C(=O)N2C(C(=O)O)=C(S[C@@H]3CN[C@H](C(=O)N(C)C)C3)[C@H](C)[C@H]12; details: Enterobacter cloacae
# Description: (§1) Ratio of Kcat to Km for Enterobacter cloacae IMI1 beta lactamase Escherichia coli DH5alpha by SDS-PAGE
# [3] = substrate: CC(C)(O/N=C(\C(=O)N[C@@H]1C(=O)N2C(C(=O)[O-])=C(C[n+]3ccccc3)CS[C@H]12)c1csc(N)n1)C(=O)O; details: Enterobacter cloacae
# Description: as §1
# [4] = substrate: C[C@H]1[C@H](NC(=O)/C(=N\OC(C)(C)C(=O)O)c2csc(N)n2)C(=O)N1S(=O)(=O)O; details: Enterobacter cloacae
# Description: as §1
# [5] = substrate: CCN1CCN(C(=O)N[C@@H](C(=O)N[C@@H]2C(=O)N3[C@@H]2SC(C)(C)[C@@H]3C(=O)O)c2ccccc2)C(=O)C1=O; details: Enterobacter cloacae
# Description: as §1
# [6] = substrate: CC1(C)S[C@@H]2[C@H](NC(=O)[C@H](N)c3ccccc3)C(=O)N2[C@H]1C(=O)O; details: Enterobacter cloacae
# Description: as §1
# [7] = substrate: CO/N=C(\C(=O)N[C@@H]1C(=O)N2C(C(=O)O)=C(COC(C)=O)CS[C@H]12)c1csc(N)n1; details: Enterobacter cloacae
# Description: as §1
# [8] = substrate: CO[C@@]1(NC(=O)Cc2cccs2)C(=O)N2C(C(=O)O)=C(COC(N)=O)CS[C@@H]21; details: Enterobacter cloacae
# Description: as §1
# [9] = substrate: CC(=O)OCC1=C(C(=O)O)N2C(=O)[C@@H](NC(=O)Cc3cccs3)[C@H]2SC1; details: Enterobacter cloacae
# Description: as §1
# [10] = substrate: C[C@@H](O)[C@H]1C(=O)N2C(C(=O)O)=C(SCCNC=N)C[C@H]12; details: Enterobacter cloacae
# Description: as §1
# [11] = substrate: C[C@@H](O)[C@H]1C(=O)N2C(C(=O)O)=C(S[C@@H]3CN[C@H](C(=O)N(C)C)C3)[C@H](C)[C@H]12; details: Enterobacter cloacae; remark: listed apart in the source
# Description: (§2) Activity of Enterobacter cloacae IMI1 beta lactamase expressed in Escherichia coli DH5alpha by SDS-PAGE
# [12] = substrate: CC(C)(O/N=C(\C(=O)N[C@@H]1C(=O)N2C(C(=O)[O-])=C(C[n+]3ccccc3)CS[C@H]12)c1csc(N)n1)C(=O)O; details: Enterobacter cloacae; remark: listed apart in the source
# Description: as §2
# [13] = substrate: C[C@H]1[C@H](NC(=O)/C(=N\OC(C)(C)C(=O)O)c2csc(N)n2)C(=O)N1S(=O)(=O)O; details: Enterobacter cloacae; remark: listed apart in the source
# Description: as §2
# [14] = substrate: CCN1CCN(C(=O)N[C@@H](C(=O)N[C@@H]2C(=O)N3[C@@H]2SC(C)(C)[C@@H]3C(=O)O)c2ccccc2)C(=O)C1=O; details: Enterobacter cloacae; remark: listed apart in the source
# Description: as §2
# [15] = substrate: CC1(C)S[C@@H]2[C@H](NC(=O)[C@H](N)c3ccccc3)C(=O)N2[C@H]1C(=O)O; details: Enterobacter cloacae; remark: listed apart in the source
# Description: as §2
# [16] = substrate: CO/N=C(\C(=O)N[C@@H]1C(=O)N2C(C(=O)O)=C(COC(C)=O)CS[C@H]12)c1csc(N)n1; details: Enterobacter cloacae; remark: listed apart in the source
# Description: as §2
# [17] = substrate: CO[C@@]1(NC(=O)Cc2cccs2)C(=O)N2C(C(=O)O)=C(COC(N)=O)CS[C@@H]21; details: Enterobacter cloacae; remark: listed apart in the source
# Description: as §2
# [18] = substrate: CC(=O)OCC1=C(C(=O)O)N2C(=O)[C@@H](NC(=O)Cc3cccs3)[C@H]2SC1; details: Enterobacter cloacae; remark: listed apart in the source
# Description: as §2
# [19] = substrate: C[C@@H](O)[C@H]1C(=O)N2C(C(=O)O)=C(SCCNC=N)C[C@H]12; details: Enterobacter cloacae; remark: listed apart in the source
# Description: as §2
# Carbapenem-hydrolyzing beta-lactamase KPC, sequence (Q9F663 whole entry): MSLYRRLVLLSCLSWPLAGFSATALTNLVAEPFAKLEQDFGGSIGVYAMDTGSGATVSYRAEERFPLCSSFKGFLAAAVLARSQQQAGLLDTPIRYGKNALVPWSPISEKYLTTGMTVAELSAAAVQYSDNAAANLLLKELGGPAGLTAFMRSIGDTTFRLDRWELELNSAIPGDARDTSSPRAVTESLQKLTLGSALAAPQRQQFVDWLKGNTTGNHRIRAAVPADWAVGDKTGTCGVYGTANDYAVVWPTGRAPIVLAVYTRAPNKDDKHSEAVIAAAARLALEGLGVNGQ
molecule,measurement,setting,value
C[C@]1(Cn2ccnn2)[C@H](C(=O)O)N2C(=O)C[C@H]2S1(=O)=O [TAZOBACTAM],IC50,[1],374 nM
B1,kcat/Km,[2],380000 M⁻¹ s⁻¹
same,kcat/Km,[3],24 M⁻¹ s⁻¹
same,kcat/Km,[4],550000 M⁻¹ s⁻¹
same,kcat/Km,[5],470000 M⁻¹ s⁻¹
same,kcat/Km,[6],240000 M⁻¹ s⁻¹
same,kcat/Km,[7],18000 M⁻¹ s⁻¹
same,kcat/Km,[8],6700 M⁻¹ s⁻¹
same,kcat/Km,[9],920000 M⁻¹ s⁻¹
same,kcat/Km,[10],520000 M⁻¹ s⁻¹
same,Km,[11],26 µM
same,kcat,[11],10 s⁻¹
same,Km,[12],270 µM
same,kcat,[12],0.0068 s⁻¹
same,Km,[13],93 µM
same,kcat,[13],51 s⁻¹
same,Km,[14],13 µM
same,kcat,[14],6.1 s⁻¹
same,Km,[15],780 µM
same,kcat,[15],190 s⁻¹
same,Km,[16],190 µM
same,kcat,[16],3.4 s⁻¹
same,Km,[17],45 µM
same,kcat,[17],0.3 s⁻¹
same,Km,[18],130 µM
same,kcat,[18],120 s⁻¹
same,Km,[19],170 µM
same,kcat,[19],89 s⁻¹
